# Assay results reported in patent publication US20250297013A1 (HK INNO N, published 2025).
# Substitutions are numbered along the chain they refer to.
# B1: Anti-HLA-G antibody 1 (antibody, V domains shown)
# VH: EVQLLESGGGLVQPGGSLRLSCAASGFTFSDYAMSWVRQAPGKGLEWVSVISHDGDRVYYADSVKGRFTISRDNSKNTLYLQMNSLRAEDTAVYYCAKGPRRIANAIFDYWGQGTLVTVSS
# VL: QLVLTQPPSVSGAPGQKVTISCSGSSSNIGHSYVSWYQQLPGTAPKLLIYGDNNRPSGVPDRFSGSKSGTSASLAITGLQAEDEADYYCQSYDSSLSGYVFGTGTKVTVL
# B2: Anti-HLA-G antibody 2 (antibody, IgG1, V domains shown)
# VH: B1 VH with D56G, R57S, V58I
# VL: B1 VL with L2F, G12A, S26N, H31N, L40V, T43A, K46R, D52S, N53T
# B3: Anti-HLA-G antibody 4 (antibody, IgG1, V domains shown)
# VH: EVQLLESGGGLVQPGGSLRLSCAASGFTFSDYSMSWVRQAPGKGLEWVSAISPDSGSKYYADSVKGRFTISRDNSKNTLYLQMNSLRAEDTAVYYCAKGPRHLTNNIFDYWGQGTLVTVSS
# VL: QSVLTQPPSASGTPGQRVTISCTGSSSNIGSNYVSWYQQLPGTAPKLLIYADSNRPSGVPDRFSGSKSGTSASLAISGLRSEDEADYYCASWDYSLSGYVFGGGTKLTVL
# B4: Anti-HLA-G antibody 3 (antibody, IgG1, V domains shown)
# VH: B3 VH with S55R, G56S, S57L, K58E
# VL: QFVLTQPPSVSAAPGQKVTISCSGSSSNIGHSYVSWYQQLPGTAPKLLIYGNIHRPSGVPDRFSGSTSGTSASLAITGLQADDEADYYCGVWDSSLSAVVFGGGTKLTVL
# Target: T1, HLA-G dimer (signal peptide-b2m-HLA-G-6xHis antigen of Example 1, dimer fraction) (human)
# T1 construct: also called HLA-G multimers
# Assay: SPR, HLA-G dimer
row,Kd [nM],Binder
1,1.11,B1
2,0.841,B2
3,4.88,B3
4,3.98,B4

# Target: T2, HLA-G monomer (signal peptide-b2m-HLA-G-6xHis antigen of Example 1, monomer fraction) (human)
# T2 construct: also called b2m-HLA-G antigen
# Assay: SPR, HLA-G monomer
row,Kd [nM],Binder
1,15,B1
2,9.3,B2
3,28.1,B4

# Target: T3, HLA-G antigen produced in Example 1 (signal peptide-b2m-HLA-G-6xHis; monomer or dimer not stated) (human)
# T3 construct: also called b2m-HLA-G antigen
# Assay: ILT2 block ELISA: competitor ILT-2-Fc coated, antigen of Example 1 pre-mixed with antibody dilutions, anti-His-HRP detection
row,IC50 [nM],Binder
1,155,B1
2,146,B2
3,144,B3
4,164,B4

# Target: T1, HLA-G dimer (signal …)
# Assay: CD8a block ELISA: dimeric antigen coated, antibody 0.391 nM, competitor CD8a-His 100 nM, anti-CD8a-HRP detection
row,CD8a Block EIA (%),Binder
1,39.5,B1
2,39,B2
3,32.1,B3
4,37.7,B4

# Target: T3, HLA-G antigen produced in Example 1 …
# Assay: Octet (BLI); form of the antigen not stated
row,Kd [nM],Binder
1,0.284,B1
2,0.549,B2
3,1.45,B3
4,1.06,B4
